In experiment [1] the target is T1, actin (Example II solid-phase assay and BIAcore; source not stated) (Oryctolagus cuniculus (Rabbit), UniProt P68135 3-377). Description: not given; presumably the solid-phase actin binding assay of the 29 peptides.
For experiment [2], the target named is T1, actin (Example II solid-phase assay and …). In words: SPR, BIAcore 3000, actin amine-coupled to CM5 chip; column heads taken as printed. As to the method:
(§1) SPR was performed on a BIAcore 3000 instrument (BIAcore, Uppsala, Sweden). Actin was diluted in 100 mM CH3COONa pH 4.6 to a final concentration of 20 μg/ml (200 μl total) resulting in ˜1 ng immobilized actin on a CM5 BIAcore sensor chip (GE Healthcare Bio-Sciences AB) using the standard BIAcore amine coupling chemistry protocol. The CM5 chip allows four separate flow cells to be operated in the BIAcore 3000 instrument used in these experiments. Coupling is achieved by activating the surface of the sensor chips with equal volumes of 50 mM N-hydroxysuccimide (NHS)/200 mM Nethyl-N-(3-[…])-carboiimide (EDC) (BIAcore, AB, Uppsala, Sweden) to form activated carboxyl groups. An actin solution (15 μg/ml) was run over the chip for 5 min at a rate of 10 μl/min, allowing the amine groups on the protein to react with the activated esters. In the final stage of immobilization, the surface was blocked by 1M ethanol amine, pH 8.0. […] Injections were performed simultaneously over all four channels and blank surface (a plain dextran matrix, channel 1) was used as control. The net signal was obtained by subtracting the blank signal from the signal of the immobilized surface. The association phase for protein or peptides binding to actin was followed for 4 min, and dissociation phases were monitored for 3 min. Surface regeneration between consecutive binding cycles included a 1 min injection of 1 mM NaOH. The response was monitored as a function of time (sensorgram) at 25° C. Multi-concentration data were globally fit using BIA evaluation 3.2 software.
A general note: In SPR one partner is held on a chip, and binding of the other changes the refractive index at the surface.

Experiment [3] shares this target. In words: SPR, BIAcore 3000, actin amine-coupled to CM5 chip. On the procedure: as §1
The target is the same in experiment [4]. Description: solid-phase actin binding assay: 500 ng actin coated per well, protein in 1:2 dilutions from 500 ng/well, rabbit anti-trT2-49 and goat anti-rabbit IgG-HRP, A655. On the procedure: (§2) 96-well plates (MaxiSorp® flat-bottom 96-well plate, Fisher Scientific Inc., Fair Lawn, N.J.) were coated with 500 ng actin in 100 μl carbonate-bicarbonate buffer (pH 9.5) for 1 h at 37° C. The plate was washed once with TBS and then blocked with 3% BSA in 200 μl TBS buffer at 37° C., for 1 h. […] The wells were washed three times with TBST and then incubated with 100 μl goat anti-rabbit IgG-HRP (Jackson ImmunoResearch, West Grove, Pa.) diluted 1:10,000 in TBS, for 1 h at 37° C. Wells were then washed twice with TBST, and once with TBS before 100 μl substrate (1-step Ultra TMB-ELISA, Pierce, Fisher Scientific Inc.) were added. Absorbance at 655 nm was measured 10 min thereafter using a Power Wave 200 Microplate Scanning Spectrophotometer (Bio-Tek Instrument, Winooski, Vt.). Affinity was evaluated by double reciprocal plotting.
To further evaluate the strength of this interaction BIAcore analysis was performed in order to quantify and understand the kinetics of the interaction between these two molecules.

For experiment [5] the target is unchanged. Description: solid-phase actin binding assay: 500 ng actin coated per well, peptide in 1:2 dilutions from 500 ng/well, rabbit anti-trT2-49 and goat anti-rabbit IgG-HRP, A655. On the procedure:
as §2
(§3) For further insight on the actin binding site within the hRNASET2 protein sequence 29 candidate peptides were tested for their ability to bind actin.

Experiment [6] shares this target. In words: solid-phase actin binding assay (ELISA, immobilized actin), double reciprocal plot. As to the method:
as §2, §3

Experiment [7] shares this target. In words: solid-phase actin binding assay: 500 ng actin coated per well, protein in 1:2 dilutions from 500 ng/well, rabbit anti-trT2-49 and goat anti-rabbit IgG-HRP, A655. As to the method: as §2, §3
This is another data set of the same source.

Experiment [8] has the same target. Described as above. As to the method: as §2, §3
The source holds these as a separate data set.

Where no end group is shown, it is not given here.

Consider KKYFGRSLELYRELDL (also called K108-L123 (16 aa)) [peptide K108-L123], for which the binding result in experiment [1] is recorded as “no binding”.

B1: trT2-49m polypeptide (other)
chain: EGCNRSWPFNLEEIKDLLPEMRAYWPDVIHSFPNRSRFWKHEWEKHGTCAAQVDALNSQKKYFGRSLELYRADFKDALARVYGVIPKIQCLPPSQDEEVQTIGQIELCLTKQDQQLQNCTEPGEQPSPKQEVWLANGAAESRGLRVCEDGPVFYPPPKKTKH
The term Kd denotes the concentration at which binding is half-saturated. As a reminder, the koff is the first-order rate constant of dissociation. A higher koff goes with fast dissociation. As a reminder, the kon is the second-order rate constant of association. In experiment [2], B1 showed a Kd of 19.4 µM and a koff of 0.00969 s⁻¹. Further, the kon in experiment [3] is 500 M⁻¹ s⁻¹. Moreover, the “EC50 (read off the curve)” value in experiment [4] is approximately 20 ng/100ul.

B2: peptide K108-K133 (peptide)
peptide: KKYFGRSLELYRELDLNSVLLKLGIK
modifications: not fully specified
notes: Synthetic 26 aa peptide of human RNASET2 (helix 5 and 6), tested free in solution in ELISA and SPR; also called 22B; T2 peptide
For the molecule B2, in experiment [2], binding was put at a Kd of 14.2 µM and the koff came out at 0.0458 s⁻¹. Also, the kon in experiment [3] amounted to 3320 M⁻¹ s⁻¹.

B3: peptide A103-Q159 (peptide)
peptide: ALNSQKKYFGRSLELYRELDLNSVLLKLGIKPSINYYQVADFKDALARVYGVIPKIQ
notes: Synthetic peptide of human RNASET2, tested free in solution; also called 22A
Consider B3, for which, in experiment [2], the Kd was determined as 0.00322 µM and the koff turned out to be 3.04 s⁻¹. Further, the “EC50 (read off the curve)” value in experiment [5] was approximately 20 ng/100ul. Further, in experiment [6], the Kd is 0.068 µM.

B4: truncated RNASET2 polypeptide trT2-49 (other)
chain: EGCNRSWPFNLEEIKDLLPEMRAYWPDVIHSFPNRSRFWKHEWEKHGTCAAQVDALNSQKKYFGRSLELYRELDLNSVLLKLGIKPSINYYQVADFKDALARVYGVIPKIQCLPPSQDEEVQTIGQIELCLTKQDQQLQNCTEPGEQPSPKQEVWLANGAAESRGLRVCEDGPVFYPPPKKTKH
notes: Described as amino acids 49-232 of full length, native RNASET2; also called truncated T2 polypeptide
B4 registered a Kd in experiment [2] of 7.72 µM. This molecule also returned a koff in experiment [2] of 0.0132 s⁻¹. This molecule also registered a kon in experiment [3] of 1710 M⁻¹ s⁻¹. Also, the “EC50 (read off the curve)” value in experiment [7], in experiment [8] and in experiment [4] was approximately 30 ng/100ul each time.

These data come from US20160340659A1 (YISSUM RESEARCH AND DEVELOPMENT COMPANY OF THE HEBREW …, published 2016).
